The values that follow come from article PMC12583548.

The target of experiment [1] is HAstV1 capsid spike domain, Avitag-biotinylated (human astrovirus 1 (HAstV1)) (UniProt O12792). Kind of experiment: BLI; streptavidin biosensor loaded with biotinylated HAstV1 spike; wild-type or mutant FcRn in solution (500-31.25 nM series; T149N_G151T_D153E at 2000 and 1000 nM); pH 7.0 (0.1 M sodium phosphate, 150 mM NaCl, 0.05% Tween-20), 25 °C; 1:1 model; triplicate. (Biolayer interferometry detects binding as a change in optical thickness at a sensor tip.)

The target in experiment [2] is HAstV1 capsid spike domain mutant K467A, 10x histidine-tagged (human astrovirus 1 (HAstV1)) (UniProt O12792). Kind of experiment: SEC; Superdex 200 Increase 10/300 GL; traces of the HAstV1 spike mutants overlayed with BioRad gel filtration standards. (In general: In gel filtration, larger molecules generally elute earlier.)
For experiment [3] the target is unchanged. Kind of experiment: SEC; Superdex 200 Increase 10/300 GL, HAstV1 spike mutants alone.
Experiment [4] addresses HAstV1 capsid spike domain triple mutant 3A (K467A, Y475A, K514A), 10x histidine-tagged (human astrovirus 1 (HAstV1)) (UniProt O12792). The description is as above.
The target of experiment [5] is HAstV1 capsid spike domain, Avitag-biotinylated (human astrovirus 1 (HAstV1)) (UniProt O12792). Kind of experiment: BLI; biosensors loaded with biotinylated HAstV1 spike (streptavidin, as in Fig. 1a); human or mouse FcRn in solution, 500, 250, 125, 62.5 nM; pH 7.0 (0.1 M sodium phosphate, 150 mM NaCl, 0.05% Tween-20), 25 °C; 1:1 model; average of three replicates.
Experiment [6] addresses HAstV1 capsid spike domain mutant K467H, Avitag-biotinylated (human astrovirus 1 (HAstV1)) (UniProt O12792). Kind of experiment: BLI; streptavidin biosensors loaded with biotinylated HAstV1 K467H spike, dipped into FcRn (2000 nM); pH 7.0 (0.1 M sodium phosphate, 150 mM NaCl, 0.05% Tween-20), 25 °C; 1:1 model; average of three replicates.
Experiment [7] has the same target. Kind of experiment: BLI; streptavidin biosensors loaded with biotinylated HAstV1 K467H spike, dipped into FcRn (1000, 500, 250 nM); pH 5.0 (0.1 M sodium acetate, 150 mM NaCl, 0.05% Tween-20), 25 °C; 1:1 model; average of three replicates.
Experiment [8] shares this target. Kind of experiment: BLI; streptavidin biosensors loaded with Avitag-biotinylated spike, FcRn in solution (500-62.5 nM for the wild type); pH 7.0 (0.1 M sodium phosphate, 150 mM NaCl, 0.05% Tween-20), 25 °C; 1:1 model.
For experiment [9], the target named is HAstV6 capsid spike domain, 10x histidine-tagged (human astrovirus 6 (HAstV6)). Kind of experiment: BLI; HIS1K biosensors loaded with 10x histidine-tagged spike, FcRn in solution at 1000, 500, 250, 125 and 62.5 nM; pH 7.0 buffer, 25 °C; 1:1 model.
Experiment [10] deals with HAstV5 capsid spike domain, 10x histidine-tagged (human astrovirus 5 (HAstV5)). The experiment is described as above.
Experiment [11] concerns the target HAstV4 capsid spike domain, 10x histidine-tagged (human astrovirus 4 (HAstV4)). The description is as above.
Experiment [12] concerns the target HAstV1 capsid spike domain mutant K514A, 10x histidine-tagged (human astrovirus 1 (HAstV1)) (UniProt O12792). The experiment is described as above.
For experiment [13], the target named is HAstV2 capsid spike domain, 10x histidine-tagged (human astrovirus 2 (HAstV2)). Described as above.
Experiment [14] addresses HAstV1 capsid spike domain mutant K467A, 10x histidine-tagged (human astrovirus 1 (HAstV1)) (UniProt O12792). Kind of experiment: BLI; HIS1K biosensors loaded with histidine-tagged spike, FcRn in solution at a single concentration of 2000 nM, kinetics estimated from that one concentration; pH 7.0 buffer, 25 °C; 1:1 model.
The target in experiment [15] is HAstV7 capsid spike domain, 10x histidine-tagged (human astrovirus 7 (HAstV7)). Described as above.
Experiment [16] has as its target HAstV1 capsid spike domain mutant Y475A, 10x histidine-tagged (human astrovirus 1 (HAstV1)) (UniProt O12792). The description is as above.
The target of experiment [17] is HAstV3 capsid spike domain, 10x histidine-tagged (human astrovirus 3 (HAstV3)). Described as above.
The target in experiment [18] is HAstV1 capsid spike domain triple mutant 3A (K467A, Y475A, K514A), 10x histidine-tagged (human astrovirus 1 (HAstV1)) (UniProt O12792). Kind of experiment: SEC; Superdex 200 Increase 10/300 GL; traces of the HAstV1 spike mutants overlayed with BioRad gel filtration standards.
The target in experiment [19] is HAstV1 capsid spike domain mutant K514A, 10x histidine-tagged (human astrovirus 1 (HAstV1)) (UniProt O12792). The description is as above.
The target is the same in experiment [20]. Kind of experiment: SEC; Superdex 200 Increase 10/300 GL, HAstV1 spike mutants alone.
Experiment [21] concerns the target HAstV1 capsid spike domain mutant Y475A, 10x histidine-tagged (human astrovirus 1 (HAstV1)) (UniProt O12792). The experiment can be described thus: SEC; Superdex 200 Increase 10/300 GL; traces of the HAstV1 spike mutants overlayed with BioRad gel filtration standards.
Experiment [22] has the same target. Kind of experiment: SEC; Superdex 200 Increase 10/300 GL, HAstV1 spike mutants alone.
Experiment [23] has as its target HAstV1 capsid spike domain mutant K467H, Avitag-biotinylated (human astrovirus 1 (HAstV1)) (UniProt O12792). Kind of experiment: SEC; Superdex 200 Increase 10/300 GL; traces of the HAstV1 spike mutants overlayed with BioRad gel filtration standards.

A word on the Kd: it is the free concentration of one partner at which half of the binding sites on the other are occupied at equilibrium, for simple one-to-one binding. A word on the koff: it is a measure of how fast the partners let go of each other. The kon is the rate constant with which the complex forms. In the case of “human FcRn mutant T149N_G151T_D153E (ectodomain heterodimer with β2 microglobulin) (from UniProt P55899 24-297; P61769 21-119) (receptor)”, in [1], the Kd was 11.9 µM, the koff was 0.37 s⁻¹ and the kon is 31000 M⁻¹ s⁻¹.
A word on the stoichiometry N: it is a count of units in the complex or per binding partner. As for “HAstV1 capsid spike domain mutant K467A, 10x histidine-tagged (from UniProt O12792 433-645) (domain or fragment)”, the stoichiometry N in experiment [2] and in experiment [3] was 2 in each case.
“HAstV1 capsid spike domain triple mutant 3 A (K467A, Y475A, K514A), 10x histidine-tagged (from UniProt O12792 433-645) (domain or fragment)”: the stoichiometry N in [4] came out at 2.
Take “human neonatal Fc receptor (FcRn), wild-type ectodomain heterodimer of αFcRn and β2 microglobulin (from UniProt P55899 24-297; P61769 21-119)”: the koff in [5] was found to be 0.018 s⁻¹; in [6], 0.24 s⁻¹; in experiment [7], 0.051 s⁻¹; in experiment [1], 0.0223 s⁻¹. The kon stood at 94000 M⁻¹ s⁻¹ in experiment [5], 11000 M⁻¹ s⁻¹ in [6], 66000 M⁻¹ s⁻¹ in experiment [7] and 93000 M⁻¹ s⁻¹ in experiment [1].
For the substance “neonatal Fc receptor (FcRn), recombinant human ectodomain heterodimer of FcRn α-chain and β2 microglobulin, with tags (from UniProt P55899;P61769)”, the Kd in experiment [8] was 22.5 µM; in experiment [10], 0.152 µM; in experiment [11] it was 0.23 µM; in experiment [12] it was 2.5 µM; in experiment [14] it was 15 µM; in experiment [15], 10.3 µM. The figures for the Kd in experiment [16] and in experiment [17] were 8 µM and 181 µM, respectively. Further, the koff in experiment [9] is 0.015 s⁻¹; in [10], 0.006 s⁻¹; in [12] it was 0.056 s⁻¹; in experiment [13] it was 0.048 s⁻¹; in experiment [14], 0.284 s⁻¹; in experiment [15], 0.013 s⁻¹. Moreover, the figures for the koff in [16] and in experiment [17] were 0.22 s⁻¹ and 0.099 s⁻¹, respectively.
In turn, “HAstV1 capsid spike domain triple mutant 3A (K467A, Y475A, K514A), 10x histidine-tagged (from UniProt O12792 433-645) (domain or fragment)” displayed a stoichiometry N in experiment [18] of 2.
“HAstV1 capsid spike domain mutant K514A, 10x histidine-tagged (from UniProt O12792 433-645) (domain or fragment)”: the stoichiometry N in [19] and in experiment [20] was 2 throughout.
As for “human FcRn mutant D153E (ectodomain heterodimer with β2 microglobulin) (from UniProt P55899 24-297; P61769 21-119) (receptor)”, in experiment [1], the koff was 0.14 s⁻¹ and the kon is 85000 M⁻¹ s⁻¹.
Consider “HAstV1 capsid spike domain mutant Y475A, 10x histidine-tagged (from UniProt O12792 433-645) (domain or fragment)”, for which the stoichiometry N in experiment [21] and in [22] was 2 throughout.
In experiment [23], “HAstV1 capsid spike domain mutant K467H, Avitag-biotinylated (from UniProt O12792 433-645) (domain or fragment)” yielded a stoichiometry N of 2.
Regarding “human FcRn mutant T149N_G151T (ectodomain heterodimer with β2 microglobulin) (from UniProt P55899 24-297; P61769 21-119) (receptor)”, in experiment [1], the koff was 0.034 s⁻¹ and the kon stood at 74000 M⁻¹ s⁻¹.
